{
  "source": "patent US20160201045A1",
  "about": "“Endo-xylanase and Coding Gene and Use Thereof” (SHANGHAI INSTITUTES FOR BIOLOGICAL SCIENCES CHINESE ACADEMY …, priority 2013, published 2016)",
  "molecules": {"B1": {"name": "Xyl7: endo-1,4-β-xylanase of 505 amino acids, SEQ ID NO:2, from termite gut metagenome, expressed in E. coli with His tag (protein)", "chain": "MKKLIALSFIAAFFAPLFAQGPTWTTSTIQAYNGYDYELWNQNNAGTVSMKLTGDNGSGASAVGGTFTATWSNTQNVLFRSGKKWGSSSNQNHTQIGNMSINFAATWSSTDNVKMLGVYGWAYFTSANVPTKQENGTNASFSNQIEYYIIQDRGSYNPASGGTNAKKYGSATIDGIAYDFYVCDRINQPMLTGNGNFKQFFSVPQSASAHRTSGTISVSQHFNKWHELGMKMDGPLYEVAMKVESYTGSGSSNGSATVTKNLLTIGGTTPTPSSNSGGTTSSSSRASSSSRASSSSNAAVQATTCKTPLITYPTSTVPSDPYTACFKYTDDKCYVCKVENEGEFEGNMNTCGSGWVWDGTQIDNNLRDGYWYQEVPCPAGSSSSRSSSSSVAVSSSSRSSSSSVAASSSSRSSSSSASVSSSSEETPIRVLHTIPSKFRVRSLNNGALQIESNADVVLYLYDTKGKMAQKIEAPTGSSIVKLSVPAGIYIVRNVQTKEKLRVMVR", "modifications": "His tag; Intestinal tract metagenome of termite"}},
  "format_in_all_cases": "biochemical",
  "key": {"[1]": {"test": "Thermal stability test of purified mutant proteins at 55° C. and 60° C.", "experimental": "Enzymatic activity was tested according to the above standard enzymatic activity detection steps (enzymatic activity was tested after reacting at pH7.0, 50° C. for 10 minutes). The enzyme solution which was not subjected to heat treatment was used as a control. Its specific activity tested under pH 7.0, 50° C. was used as a reference value and its relative activity was defined as 100%. The relative activity of the treatment group was a ratio between the relative activity value obtained after storing at different temperatures for different times (treatment conditions) and the reference value. […] After storing at these temperatures for 45 min, the enzymatic activity decreased to be less than 50% of the maximum activity.\nTransformants were picked up by sterile toothpick to a LB liquid culture containing antibiotic and IPTG (in a final concentration of 1 mM) contained within the wells of a 96-well plate and cultured overnight at 37° C. and 200 rpm. Thallus was collected by centrifugation. 100 ul buffers having the optimum reaction pH were added to re-suspend the thallus. […] Enzymatic activity was detected according to the DNS method. […] Then the enzymatic activity was detected. The residual enzymatic activity of the treatment group was calculated as a percentage of the enzymatic activity of the treatment group in relative to that of the control group. […]"}, "[2]": {"test": "Detection on the optimum temperature", "experimental": "(§1) In a 100 μl reaction system, birch xylan was added to a final concentration of 1% (w/w), and Na2HPO4/NaH2PO4 buffer (pH7.0) was added to a final concentration of 100 mM. A suitable amount of enzyme solution diluted by the abovementioned buffer was added to the reaction system for reaction at 50[…] for 10 minutes. 100 μl DNS were added to stop the reaction. For the control, 100 μl DNS were firstly added to the above reaction system before adding the enzyme solution. The reaction mixtures were subjected to a boiled water bath for 5 minutes to develop color. Absorbance value at 540 nm was detected by a microplate reader. After subtracting the absorbance value of the control from that of the sample, the enzymatic activity unit (U) was calculated based on the standard curve.\nEnzymatic activity was detected according the above standard enzymatic activity detection steps at pH 7.0 and a temperature in the range of 25-80° C. The optimum temperature of Xyl7 was in the range of 50-55° C., with an activity at 50[…] slightly higher than that at 55[…]. Thus, the specific activity value of the enzyme at 50[…] was used as a reference value and its relative activity was defined as 100%. The relative activity of the enzyme at each temperature was a ratio between the specific activity value of the enzyme at each temperature and the reference value."}, "[3]": {"test": "Specific activity of the xylanase on beech xylan (DNS method)", "conditions": "pH7.0, 50° C., 10 minutes", "experimental": "Enzymatic activity of the endo-1,4-β-xylanase was tested by a DNS method as follows:\n10 g NaOH were weighed and dissolved in about 400 ml ddH2O. 10 g dinitrosalicylic acid, 2 g phenol, 0.5 g anhydrous sodium sulfite and 200 g potassium sodium tartrate tetrahydrate were weighed and dissolved in about 300 ml ddH2O. The two solutions were mixed, diluted to 1 liter and preserved in dark.\n100 μl DNS were added into each of the above standard samples. The mixtures were subjected to boiled water bath for 5 minutes for developing color. Absorbance value at 540 nm was detected by a microplate reader. Standard sample 1 was a blank control. The absorbance value of the blank control was subtracted from that of each sample and then the standard curve was plotted.\nas §1, with “For the control, 100 μl DNS were firstly added to the above reaction system before adding the enzyme solution. The reaction mixtures were subjected to a boiled water bath for 5 minutes to develop color.” left out, “curve. […]” for “curve.”"}, "[4]": {"test": "Detection of the optimum pH", "experimental": "as §1\nBuffers having different pH values in the range of 3.5-10 in a gradient of 0.5 unit were prepared, wherein NaAc with a final concentration of 100 mM was used to prepare the buffers having a pH in the range of 3.5-6.0, Na2HPO4/NaH2PO4 with a final concentration of 100 mM was used to prepare the buffers having a pH in the range of 6.0-8.0, and Tris-HCl with a final concentration of 100 mM was used to prepare the buffers having a pH in the range of 8.0-10.0. The enzyme solution was added into each pH buffer system and the enzymatic activity was tested according to the above standard enzymatic activity detection steps. […]"}},
  "note": "Values joined by “and” are separate entries in the source; they are usually repeats but may differ in a detail not shown here. Equal values may be shown once.",
  "data": [
    {"molecule": "B1", "values": [
      {"measurement": "half life at 60° C.", "setting": "[1]", "result": "less than 10 minutes"},
      {"measurement": "optimum temperature", "setting": "[2]; pH 7.0, 25-80° C. tested", "result": "50-55 °C"},
      {"measurement": "retained activity in the range of 30-60° C.", "setting": "[2]; pH 7.0, % of the highest activity (50)", "result": "≥ 50", "unit": "%"},
      {"measurement": "Specific Activity on beech xylan", "setting": "[3]", "result": "6340 U/mg and 6340 ± 48 U/mg"},
      {"measurement": "Specific Activity on beech xylan", "setting": "[3]; listed as xylanase of the present disclosure", "result": "higher than 6340 U/mg"},
      {"measurement": "optimum pH", "setting": "[4]; buffers pH 3.5-10, 50", "result": 7.0},
      {"measurement": "relative activity in the pH range of from 5.5 to 10", "setting": "[4]; relative to activity at pH7.0, 50", "result": "≥ 50", "unit": "%"}
    ]}
  ]
}
